For one substance, Km of phosphorylation of the 42-mer by CK2 holoenzyme (33P incorporation, Figure 3) results are on record in article PMC3776838, “Detection of Phospho-Sites Generated by Protein Kinase CK2 in CFTR: Mechanistic Aspects of Thr1471 Phosphorylation” (PLoS ONE, 2013).

For this assay, the target named is Human CK2 α2β2-holoenzyme (human) (UniProt P68400).
Human CK2 α2β2-holoenzyme (human), sequence (P68400 whole entry, chain 1 of 2): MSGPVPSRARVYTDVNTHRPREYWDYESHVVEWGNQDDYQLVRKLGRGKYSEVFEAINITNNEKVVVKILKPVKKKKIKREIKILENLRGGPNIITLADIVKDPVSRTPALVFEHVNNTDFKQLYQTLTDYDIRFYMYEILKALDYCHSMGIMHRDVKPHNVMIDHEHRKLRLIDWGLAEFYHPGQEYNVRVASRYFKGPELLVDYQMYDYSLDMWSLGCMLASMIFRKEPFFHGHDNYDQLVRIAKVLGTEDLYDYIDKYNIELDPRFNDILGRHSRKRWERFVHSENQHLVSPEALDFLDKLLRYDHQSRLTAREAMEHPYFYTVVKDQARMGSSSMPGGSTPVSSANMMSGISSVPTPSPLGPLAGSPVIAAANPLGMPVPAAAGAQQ
Human CK2 α2β2-holoenzyme (human), sequence (P67870 whole entry, chain 2 of 2, further chain): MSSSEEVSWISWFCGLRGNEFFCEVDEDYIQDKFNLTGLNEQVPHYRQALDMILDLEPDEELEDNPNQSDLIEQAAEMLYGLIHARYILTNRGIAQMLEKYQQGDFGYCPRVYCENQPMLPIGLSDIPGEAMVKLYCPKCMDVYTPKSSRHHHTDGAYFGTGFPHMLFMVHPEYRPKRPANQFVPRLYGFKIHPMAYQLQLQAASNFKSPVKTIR

42-mer peptide reproducing the C-terminal tail of human CFTR (residues 1439–1480), sequence (P13569 1439-1480): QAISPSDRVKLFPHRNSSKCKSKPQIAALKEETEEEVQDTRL

Take “42-mer peptide reproducing the C-terminal tail of human CFTR (residues 1439–1480) (from UniProt P13569 1439-1480) (domain or fragment)”: the Km of phosphorylation of the 42-mer by CK2 holoenzyme (33P incorporation, Figure 3) amounted to 1.4 µM.
